Test results: US20220259593A1, “CONTROL OF MAMMALIAN GENE DOSAGE USING CRISPR” (The Regents of the University of California, priority 2019, published 2022)
Substitutions are numbered along the chain they refer to.

B1: cr747 (nucleic acid)
guide: GTTTAAGAGCTAAGCTGGAAACAGCATAGCAAGTTTAAATAAGGCTAGTCCGTTATCACCTTGAGAAAGGGGCACCGAGTCGGTGCT
modifications: listed as DNA, chemistry not fully specified
B2: cr926 (nucleic acid)
guide: B1 guide with C25A, C59A, G65A, G70T
modifications: listed as DNA, chemistry not fully specified
B3: cr556 (nucleic acid)
guide: B1 guide with C59A, T62C, G65A, A67G, G70T, G72A, C73T, G85A, C86T
modifications: listed as DNA, chemistry not fully specified
B4: cr238 (nucleic acid)
guide: B1 guide with C59A, G65A, G70T, A74T, C75T, G83A, T84A
modifications: listed as DNA, chemistry not fully specified
B5: cr754 (nucleic acid)
guide: B1 guide with C59A, G63T, G65A, G70T
modifications: listed as DNA, chemistry not fully specified
B6: cr224 (nucleic acid)
guide: B1 guide with C59A, T61C, G65A, A68G, G70T, C73T, C75T, G83A, G85A
modifications: listed as DNA, chemistry not fully specified
B7: cr811 (nucleic acid)
guide: B1 guide with C25T, C59A, G65A, G70T
modifications: listed as DNA, chemistry not fully specified
B8: cr226 (nucleic acid)
guide: B1 guide with C59A, G65A, G70T, A74C, C75A, G83T, T84G
modifications: listed as DNA, chemistry not fully specified
B9: cr359 (nucleic acid)
guide: B1 guide with A28C, C59A, G65A, G70T
modifications: listed as DNA, chemistry not fully specified
B10: cr147 (nucleic acid)
guide: B1 guide with C59A, G63A, A64T, G65A, G70T, G79C
modifications: listed as DNA, chemistry not fully specified
B11: cr783 (nucleic acid)
guide: B1 guide with C59T, G65A, G70A, C73A, G85T
modifications: listed as DNA, chemistry not fully specified
B12: cr327 (nucleic acid)
guide: B1 guide with C59A, A64C, G65A, G70T
modifications: listed as DNA, chemistry not fully specified
B13: cr307 (nucleic acid)
guide: B1 guide with C59A, G65A, G70T, G77A, C81T
modifications: listed as DNA, chemistry not fully specified
B14: cr176 (nucleic acid)
guide: B1 guide with C59G, G65A, G70C
modifications: listed as DNA, chemistry not fully specified
B15: cr021 (nucleic acid)
guide: B1 guide with A8C, C59A, G65A, G70T
modifications: listed as DNA, chemistry not fully specified
B16: cr624 (nucleic acid)
guide: B1 guide with A55G, C59A, G65A, G70T
modifications: listed as DNA, chemistry not fully specified

Test system: K562 CRISPRi cells
Assay: Constant region variant library pooled growth screen, K562
Type: cell-based, human
Conditions: sgRNA constant region variants
In short: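 Pooled library transduced into K562 CRISPRi cells in duplicate, puromycin-selected, grown at >2000× coverage and sampled after 4 to 8 days. Phenotypes per targeting sequence:constant region pair were normalized to the unmodified-scaffold pairing to give relative activity.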

[1] = activity relative to the un-modified constant region cr995
[2] = activity relative to the original, un-modified constant region cr995

Molecule | Mean relative activity [1] | Mean relative activity [2]
B1 | 0.9812 | 
B2 | 0.9811 | 
B3 | 0.9785 | 
B4 | 0.9809 | 
B5 | 0.9804 | 
B6 | 0.9777 | 
B7 | 0.9803 | 
B8 | 0.9795 | 
B9 | 0.9746 | 
B10 | 0.9753 | 
B11 | 0.9779 | 
B12 |  | 1.066
B13 | 0.9746 | 
B14 |  | 1.067
B15 | 0.9786 | 
B16 | 0.9799 | 
